The record followed here is patent US20100151566A1.

Assay [1] deals with Isoform 121 of human VEGF-A (Peprotech) (human) (UniProt P15692). Put plainly: ELISA on coated antigen, 0.2 µg/mL, 9E10 detection.
The target is the same in assay [2]. Put plainly: ELISA on coated antigen, 20 µg/mL, 9E10 detection.
Assay [3] has the same target. The assay is described as follows: ELISA on coated antigen, 2 µg/mL, 9E10 detection.
Assay [4] shares this target. The assay is described as follows: phage ELISA on coated VEGF-A 121, without KDR-Fc.
The target is the same in assay [5]. Put plainly: phage ELISA on native VEGF-A 121.
The target in assay [6] is Human VEGF-A treated with DTT (reduced) (human) (UniProt P15692). Put plainly: phage ELISA on DTT-reduced VEGF-A 121.
Chain of Human VEGF-A treated with DTT (reduced) (human) (P15692 other isoform, or with tags, fused parts or gaps limits assumed): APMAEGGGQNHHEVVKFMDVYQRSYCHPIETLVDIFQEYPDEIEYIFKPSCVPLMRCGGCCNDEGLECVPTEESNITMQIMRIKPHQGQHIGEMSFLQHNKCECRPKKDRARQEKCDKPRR
The target of assay [7] is Isoform 121 of human VEGF-A (Peprotech) (human) (UniProt P15692). Put plainly: phage ELISA on coated VEGF-A 121, competitor KDR-Fc 2 µg/mL.

Chain of Isoform 121 of human VEGF-A (Peprotech) (human) (P15692 other isoform, or with tags, fused parts or gaps): as the sequence (P15692 other isoform, or with tags, fused parts or gaps limits assumed) above

B1: Fab 2H1-32 (Fab, V domains shown)
VH: QVQLVQSGAEVKKPGESLKISCKGSGYSFTSYWIGWVRQMPGKGLEWMGIIYPGDSDTRYSPSFQGQVTISADKSISTAYLQWSSLKASDTAMYYCARLVVRDTEIWGQGTMVTVSS
VL: QAVVTQEPSLTVSPGGTVTLTCASSIGAVTSGNYPNWFQQRPGQPPRALIYSTSNKHSWTPARFSGSLLGGKAALTLSGAQPEDEAEYYCLLSYSGARPVFGGGTKLTVLG
Turning to B1, the Optical Density (492 nm) is 0.675 OD 492 nm in assay [1], 1.02 OD 492 nm in assay [2] and 1.09 OD 492 nm in assay [3].

B2: phage clone 2H1-F (scFv, not shown: large carriers; small tags and cut ends)
scFv: QQVQLVQSGAEVKKPGESLKISCKGSGYSFTSYWIGWVRQMPGKGLEWMGIIYPGDSDTRYSPSFQGQVTISADKSISTAYLQWSSLKASDTAMYYCARLVVRDTEIWGQGTMVTVSSAPQAKSSGSGSESKVDQAVVTQEPSLTVSPGGTVTLTCASSIGAVTSGNYPNWFQQRPGQPPRALIYSTSNKHSWTPARFSGSLLGGKAALTLSGAQPEDEAEYYCLLSYSGARPVFGGGTKLTVLG
On to B2, for which the Optical Density (492 nm) in assay [4] amounted to 1.15 OD 492 nm; in assay [5], 1.25 OD 492 nm; in assay [6], 0.103 OD 492 nm; in assay [7], 0.577 OD 492 nm.
